The source of these data is article PMC6331917.

This data set concerns NS5BΔ21 (viral RNA-dependent RNA polymerase) (Hepatitis C virus). The data set can be described thus: competition (filter binding). Particulars: 5 mM HEPES pH 7.9, 2 mM MgCl2, 25 mM KCl, 37 °C, 30 min; nitrocellulose dot-blot filter binding. Aptamer:CRE Kd values (Table 2) are RNA-RNA and not listed.

HCV-CRE194: the binding signal worked out at 75.4 % complex.
